The source of these data is patent publication US20240376151A1, “STAPLED PEPTIDES AND METHODS THEREOF” (FOG PHARMACEUTICALS, INC., priority 2022, published 2024).

The target of the experiment is T1, RNF31 PUB domain (Homo sapiens, UniProt Q96EP0).
T1 construct: MBP-TEV (N, cleaved yes); made in house; host or cells: E. coli BL21 (DE3) pLysS
T1 sequence (Q96EP0 1-179): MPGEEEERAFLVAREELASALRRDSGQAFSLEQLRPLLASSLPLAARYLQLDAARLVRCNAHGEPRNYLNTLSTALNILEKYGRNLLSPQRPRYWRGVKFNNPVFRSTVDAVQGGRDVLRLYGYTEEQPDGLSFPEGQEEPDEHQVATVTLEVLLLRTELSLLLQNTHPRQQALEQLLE
The experiment can be described thus: Phage Library Screening with NGS, RNF31 PUB domain. Format: binding. To be noted: for Phage library screen NGS readout, Target Concentration 10 / Phage library screen NGS readout, Target Concentration 30 / Phage library screen NGS readout, Target Concentration 100 / Phage library screen NGS readout, Target Concentration 300 / Phage library screen NGS readout, Target Concentration 1000: RNF31 PUB domain clusters C41-C45; for Phage library screen NGS readout, BLANK: clusters C41-C45.

The mark [1] stands for this setting: target concentration 1000, first column.
Where [2] appears, read: target concentration 1000, second column.

As to DPAQEACWDAAIMCTYR, the “Phage library screen NGS readout, Target Concentration 10” value was determined as 0; the “Phage library screen NGS readout, Target Concentration 30” value is given as 0; the “Phage library screen NGS readout, Target Concentration 100” value was determined as 0; the “Phage library screen NGS readout, Target Concentration 300” value is 29. The “Phage library screen NGS readout, Target Concentration 1000” value under setting [1] is given as 56. Under setting [2], the “Phage library screen NGS readout, Target Concentration 1000” value was found to be 80. In addition, the “Phage library screen NGS readout, BLANK” value (column 1 of 5) is 0. In addition, the “Phage library screen NGS readout, BLANK” value (column 2 of 5) worked out at 0. Besides, the “Phage library screen NGS readout, BLANK” value (column 3 of 5) is 0. Further, the “Phage library screen NGS readout, BLANK” value (column 4 of 5) was found to be 0. Further, the “Phage library screen NGS readout, BLANK” value (column 5 of 5) is recorded as 0.

Regarding DPAWWDCMYAASHCDTV, the “Phage library screen NGS readout, Target Concentration 10” value worked out at 0; the “Phage library screen NGS readout, Target Concentration 30” value was determined as 0; the “Phage library screen NGS readout, Target Concentration 100” value was 0; the “Phage library screen NGS readout, Target Concentration 300” value is recorded as 3. Further, the “Phage library screen NGS readout, Target Concentration 1000” value under setting [1] worked out at 12. Further, under setting [2], the “Phage library screen NGS readout, Target Concentration 1000” value was determined as 2. Further, where the note is “column 1 of 5”, the “Phage library screen NGS readout, BLANK” value was determined as 2. The “Phage library screen NGS readout, BLANK” value (column 2 of 5) came to 0. The “Phage library screen NGS readout, BLANK” value (column 3 of 5) was determined as 0. For the setting “column 4 of 5”, the “Phage library screen NGS readout, BLANK” value is 0. The “Phage library screen NGS readout, BLANK” value (column 5 of 5) amounted to 0.

Regarding DPASEWCLDAAVLCTYS, the “Phage library screen NGS readout, Target Concentration 10” value turned out to be 0; the “Phage library screen NGS readout, Target Concentration 30” value was determined as 0; the “Phage library screen NGS readout, Target Concentration 100” value is 3; the “Phage library screen NGS readout, Target Concentration 300” value was 18. The “Phage library screen NGS readout, Target Concentration 1000” value under setting [1] is recorded as 63. Further, under setting [2], the “Phage library screen NGS readout, Target Concentration 1000” value was 65. Besides, for the setting “column 1 of 5”, the “Phage library screen NGS readout, BLANK” value stood at 2. Under “column 2 of 5”, the “Phage library screen NGS readout, BLANK” value is given as 0. Besides, the “Phage library screen NGS readout, BLANK” value (column 3 of 5) is 0. The “Phage library screen NGS readout, BLANK” value (column 4 of 5) worked out at 0. Moreover, the “Phage library screen NGS readout, BLANK” value (column 5 of 5) is 0.

Consider DPAAWECHIAAFVCSTY, for which the “Phage library screen NGS readout, Target Concentration 10” value came out at 1; the “Phage library screen NGS readout, Target Concentration 30” value is 1; the “Phage library screen NGS readout, Target Concentration 100” value amounted to 0; the “Phage library screen NGS readout, Target Concentration 300” value came out at 2. The “Phage library screen NGS readout, Target Concentration 1000” value under setting [1] is recorded as 8. For the same sequence, the “Phage library screen NGS readout, Target Concentration 1000” value under setting [2] turned out to be 7. Also, the “Phage library screen NGS readout, BLANK” value (column 1 of 5) was found to be 0. Moreover, the “Phage library screen NGS readout, BLANK” value (column 2 of 5) was found to be 0. Further, the “Phage library screen NGS readout, BLANK” value (column 3 of 5) was found to be 0. Moreover, the “Phage library screen NGS readout, BLANK” value (column 4 of 5) is reported as 0. In addition, the “Phage library screen NGS readout, BLANK” value (column 5 of 5) was determined as 0.

For the sequence DPAYDWCMYAAYNCVED, the “Phage library screen NGS readout, Target Concentration 10” value was 2; the “Phage library screen NGS readout, Target Concentration 30” value is listed as 1; the “Phage library screen NGS readout, Target Concentration 100” value is 1; the “Phage library screen NGS readout, Target Concentration 300” value is on record as 6. Under setting [1], the “Phage library screen NGS readout, Target Concentration 1000” value is 41. The “Phage library screen NGS readout, Target Concentration 1000” value under setting [2] was found to be 38. Besides, the “Phage library screen NGS readout, BLANK” value (column 1 of 5) came out at 0. Further, the “Phage library screen NGS readout, BLANK” value (column 2 of 5) amounted to 0. Moreover, the “Phage library screen NGS readout, BLANK” value (column 3 of 5) was found to be 0. Where the note is “column 4 of 5”, the “Phage library screen NGS readout, BLANK” value was 0. For the same sequence, where the note is “column 5 of 5”, the “Phage library screen NGS readout, BLANK” value is on record as 0.

With DPAWLDCIYAAYDCVTD, the “Phage library screen NGS readout, Target Concentration 10” value came to 1; the “Phage library screen NGS readout, Target Concentration 30” value worked out at 1; the “Phage library screen NGS readout, Target Concentration 100” value amounted to 1; the “Phage library screen NGS readout, Target Concentration 300” value was found to be 3. Under setting [1], the “Phage library screen NGS readout, Target Concentration 1000” value was 6. Besides, the “Phage library screen NGS readout, Target Concentration 1000” value under setting [2] was found to be 4. Also, the “Phage library screen NGS readout, BLANK” value (column 1 of 5) is on record as 1. Further, the “Phage library screen NGS readout, BLANK” value (column 2 of 5) is 1. For the same sequence, under “column 3 of 5”, the “Phage library screen NGS readout, BLANK” value was 1. Also, the “Phage library screen NGS readout, BLANK” value (column 4 of 5) is 0. Further, the “Phage library screen NGS readout, BLANK” value (column 5 of 5) was 2.

On to DPAQYQCWNAAMSCSYS, for which the “Phage library screen NGS readout, Target Concentration 10” value is given as 1; the “Phage library screen NGS readout, Target Concentration 30” value was 1; the “Phage library screen NGS readout, Target Concentration 100” value is recorded as 3; the “Phage library screen NGS readout, Target Concentration 300” value stood at 3. The “Phage library screen NGS readout, Target Concentration 1000” value under setting [1] was 7. Further, the “Phage library screen NGS readout, Target Concentration 1000” value under setting [2] was 4. Also, the “Phage library screen NGS readout, BLANK” value (column 1 of 5) is reported as 1. For the same sequence, the “Phage library screen NGS readout, BLANK” value (column 2 of 5) was determined as 0. For the same sequence, the “Phage library screen NGS readout, BLANK” value (column 3 of 5) amounted to 0. Where the note is “column 4 of 5”, the “Phage library screen NGS readout, BLANK” value is given as 3. Moreover, under “column 5 of 5”, the “Phage library screen NGS readout, BLANK” value was 2.

With DPAAEDCHIAAMVCMTY, the “Phage library screen NGS readout, Target Concentration 10” value was 0; the “Phage library screen NGS readout, Target Concentration 30” value came to 4; the “Phage library screen NGS readout, Target Concentration 100” value worked out at 0; the “Phage library screen NGS readout, Target Concentration 300” value is on record as 12. Moreover, the “Phage library screen NGS readout, Target Concentration 1000” value under setting [1] was found to be 46. Besides, the “Phage library screen NGS readout, Target Concentration 1000” value under setting [2] was found to be 67. Moreover, the “Phage library screen NGS readout, BLANK” value (column 1 of 5) came out at 0. Besides, the “Phage library screen NGS readout, BLANK” value (column 2 of 5) came out at 0. For the same sequence, the “Phage library screen NGS readout, BLANK” value (column 3 of 5) worked out at 0. For the same sequence, the “Phage library screen NGS readout, BLANK” value (column 4 of 5) is 0. Moreover, the “Phage library screen NGS readout, BLANK” value (column 5 of 5) worked out at 0.

On to DPAWDYCMYAAYDCNHS, for which the “Phage library screen NGS readout, Target Concentration 10” value is 2; the “Phage library screen NGS readout, Target Concentration 30” value turned out to be 0; the “Phage library screen NGS readout, Target Concentration 100” value is on record as 1; the “Phage library screen NGS readout, Target Concentration 300” value is given as 8. Under setting [1], the “Phage library screen NGS readout, Target Concentration 1000” value worked out at 46. Moreover, the “Phage library screen NGS readout, Target Concentration 1000” value under setting [2] is listed as 29. Also, the “Phage library screen NGS readout, BLANK” value (column 1 of 5) is recorded as 0. Also, the “Phage library screen NGS readout, BLANK” value (column 2 of 5) is 1. The “Phage library screen NGS readout, BLANK” value (column 3 of 5) is recorded as 0. Further, the “Phage library screen NGS readout, BLANK” value (column 4 of 5) is 0. For the same sequence, the “Phage library screen NGS readout, BLANK” value (column 5 of 5) was found to be 1.

For the sequence DPAIAQCMLAAQVCSTY, the “Phage library screen NGS readout, Target Concentration 10” value came out at 2; the “Phage library screen NGS readout, Target Concentration 30” value was found to be 0; the “Phage library screen NGS readout, Target Concentration 100” value was 0; the “Phage library screen NGS readout, Target Concentration 300” value came to 5. Besides, the “Phage library screen NGS readout, Target Concentration 1000” value under setting [1] amounted to 54. Further, the “Phage library screen NGS readout, Target Concentration 1000” value under setting [2] came out at 34. Besides, the “Phage library screen NGS readout, BLANK” value (column 1 of 5) is given as 1. In addition, the “Phage library screen NGS readout, BLANK” value (column 2 of 5) stood at 0. In addition, where the note is “column 3 of 5”, the “Phage library screen NGS readout, BLANK” value is on record as 0. For the setting “column 4 of 5”, the “Phage library screen NGS readout, BLANK” value came to 0. In addition, the “Phage library screen NGS readout, BLANK” value (column 5 of 5) is 0.

DPAWTDCDWAALYCEFQ: the “Phage library screen NGS readout, Target Concentration 10” value is 1; the “Phage library screen NGS readout, Target Concentration 30” value worked out at 0; the “Phage library screen NGS readout, Target Concentration 100” value was 0; the “Phage library screen NGS readout, Target Concentration 300” value is 0. Moreover, the “Phage library screen NGS readout, Target Concentration 1000” value under setting [1] turned out to be 6. Further, under setting [2], the “Phage library screen NGS readout, Target Concentration 1000” value was 6. Moreover, the “Phage library screen NGS readout, BLANK” value (column 1 of 5) is on record as 0. Besides, where the note is “column 2 of 5”, the “Phage library screen NGS readout, BLANK” value is on record as 0. For the same sequence, the “Phage library screen NGS readout, BLANK” value (column 3 of 5) stood at 0. For the same sequence, the “Phage library screen NGS readout, BLANK” value (column 4 of 5) is recorded as 1. Besides, the “Phage library screen NGS readout, BLANK” value (column 5 of 5) is 0.
